Results taken from US20190270826A1 (Janssen / Centocor, published 2019).

Key:
[1] = biological target: T1, recombinant cyno IL1RAP ECD (cynomolgus monkey, UniProt P59822 21-367 (rhesus entry)); assay: recombinant protein
T1 construct: also called rcynoIL1RAP
T1 sequence: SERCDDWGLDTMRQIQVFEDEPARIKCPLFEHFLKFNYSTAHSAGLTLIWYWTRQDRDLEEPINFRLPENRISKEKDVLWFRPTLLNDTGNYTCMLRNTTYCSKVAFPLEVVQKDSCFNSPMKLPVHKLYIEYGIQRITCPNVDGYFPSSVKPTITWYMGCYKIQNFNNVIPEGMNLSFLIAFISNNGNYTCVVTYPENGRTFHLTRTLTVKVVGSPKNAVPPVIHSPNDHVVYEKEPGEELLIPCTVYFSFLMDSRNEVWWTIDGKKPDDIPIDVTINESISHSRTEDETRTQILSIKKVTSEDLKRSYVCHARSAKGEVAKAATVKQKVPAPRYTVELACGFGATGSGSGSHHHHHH

[2] = biological target: T2, human IL1RAP ECD displayed on HEK-293F cells (pDisplay) (human, UniProt Q9NPH3 21-367); assay: HEK-293F cells (MSD)
T2 construct: also called Human clone HE2 IL1RAP FL-ECD cell line
T2 sequence: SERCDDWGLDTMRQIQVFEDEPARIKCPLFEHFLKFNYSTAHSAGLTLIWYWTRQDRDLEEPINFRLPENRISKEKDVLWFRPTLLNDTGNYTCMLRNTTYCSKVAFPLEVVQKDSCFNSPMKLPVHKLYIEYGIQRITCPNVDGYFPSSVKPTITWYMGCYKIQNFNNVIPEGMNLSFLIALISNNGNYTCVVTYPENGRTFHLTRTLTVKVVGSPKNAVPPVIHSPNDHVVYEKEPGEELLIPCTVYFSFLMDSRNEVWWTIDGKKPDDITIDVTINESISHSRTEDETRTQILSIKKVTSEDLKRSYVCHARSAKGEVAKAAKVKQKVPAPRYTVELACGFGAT

[3] = biological target: T3, cyno IL1RAP ECD displayed on HEK-293F cells (pDisplay) (cynomolgus monkey, UniProt P59822 21-367 (rhesus entry)); assay: HEK-293F cells (MSD)
T3 sequence: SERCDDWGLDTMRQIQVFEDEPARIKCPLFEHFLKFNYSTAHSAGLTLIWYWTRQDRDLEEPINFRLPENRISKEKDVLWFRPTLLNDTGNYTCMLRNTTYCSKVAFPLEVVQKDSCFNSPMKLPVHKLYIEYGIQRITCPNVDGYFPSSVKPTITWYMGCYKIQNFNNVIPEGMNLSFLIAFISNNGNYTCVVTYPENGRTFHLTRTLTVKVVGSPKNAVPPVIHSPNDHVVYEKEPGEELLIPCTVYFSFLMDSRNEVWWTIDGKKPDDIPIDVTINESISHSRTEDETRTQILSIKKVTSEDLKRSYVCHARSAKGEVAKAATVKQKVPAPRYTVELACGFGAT

[4] = biological target: T4, mouse IL1RAP ECD displayed on HEK-293F cells (pDisplay) (mouse, UniProt Q61730 21-367); assay: HEK-293F cells (MSD)
T4 sequence: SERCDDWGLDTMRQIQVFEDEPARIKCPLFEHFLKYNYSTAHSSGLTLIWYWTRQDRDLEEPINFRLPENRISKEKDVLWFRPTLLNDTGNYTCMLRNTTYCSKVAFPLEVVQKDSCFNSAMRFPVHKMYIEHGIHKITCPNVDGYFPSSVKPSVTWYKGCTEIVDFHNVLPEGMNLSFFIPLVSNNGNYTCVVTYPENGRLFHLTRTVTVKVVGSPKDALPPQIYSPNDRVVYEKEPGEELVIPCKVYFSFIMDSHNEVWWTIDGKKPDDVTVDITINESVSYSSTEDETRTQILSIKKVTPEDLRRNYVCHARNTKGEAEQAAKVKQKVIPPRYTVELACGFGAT

[5] = biological target: T5, rat IL1RAP ECD displayed on HEK-293F cells (pDisplay) (rat, UniProt Q63621 21-367); assay: HEK-293F cells (MSD)
T5 sequence: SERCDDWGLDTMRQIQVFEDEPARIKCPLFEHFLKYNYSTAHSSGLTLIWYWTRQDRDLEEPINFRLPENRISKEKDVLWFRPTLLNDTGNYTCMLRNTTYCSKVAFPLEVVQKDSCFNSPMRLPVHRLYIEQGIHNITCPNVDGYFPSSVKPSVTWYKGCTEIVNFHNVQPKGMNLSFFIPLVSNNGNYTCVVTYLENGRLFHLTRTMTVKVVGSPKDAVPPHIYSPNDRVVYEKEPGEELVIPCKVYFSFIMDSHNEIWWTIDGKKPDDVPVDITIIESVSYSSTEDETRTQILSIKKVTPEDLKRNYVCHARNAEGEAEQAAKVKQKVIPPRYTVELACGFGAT

Measured: binding result

B1: IAPB38 (antibody, human IgG4 S228P, kappa, F234A L235A, V domains shown)
VH: EVQLLESGGGLVQPGGSLRLSCAASGFTFSNYAMNWVRQAPGKGLEWVSGINYGGGSKYYADSVKGRFTISRDNSKNTLYLQMNSLRAEDTAVYYCAKDYGPFALDYWGQGTLVTVSS
VL: EIVLTQSPATLSLSPGERATLSCRASQSVDDWLAWYQQKPGQAPRLLIYTASNRATGIPARFSGSGSGTDFTLTISSLEPEDFAVYYCQQYHHWPLTFGQGTKVEIKR
notes: IgG4-PAA; whole chains
binds: all assays above

B2: IAPB62 (antibody, human IgG4 S228P, kappa, F234A L235A, V domains shown)
VH: QVQLVQSGSELKKPGASVKVSCKASGYTFNTYAMNWVRQAPGQGLEWMGWINTNTGNPTYAQGFTGRFVFSLDTSVSTAYLQISSLKAEDTAVYYCARRYFDWLLGAFDIWGQGTMVTVSS
VL: DIQMTQSPSSVSASVGDRVTITCRASQGISSWLAWYQQKPGKAPKLLIYAASSLQSGVPSRFSGSGSGTDFTLTISSLQPEDFATYYCQQANSFPLTFGGGTKVEIKR
notes: IgG4-PAA; whole chains
binds: [1] | [2] | [3]
